In the test the target is Tie-2 receptor in EAhy926 cells (UniProt Q02763). Put plainly: cell-based or functional assay. The settings on record: scale: fold molar excess of Ang1*.

This is an account of results in patent publication US7008781.

Sequence of UniProt Q02763 (Q02763 23-1124 limits assumed): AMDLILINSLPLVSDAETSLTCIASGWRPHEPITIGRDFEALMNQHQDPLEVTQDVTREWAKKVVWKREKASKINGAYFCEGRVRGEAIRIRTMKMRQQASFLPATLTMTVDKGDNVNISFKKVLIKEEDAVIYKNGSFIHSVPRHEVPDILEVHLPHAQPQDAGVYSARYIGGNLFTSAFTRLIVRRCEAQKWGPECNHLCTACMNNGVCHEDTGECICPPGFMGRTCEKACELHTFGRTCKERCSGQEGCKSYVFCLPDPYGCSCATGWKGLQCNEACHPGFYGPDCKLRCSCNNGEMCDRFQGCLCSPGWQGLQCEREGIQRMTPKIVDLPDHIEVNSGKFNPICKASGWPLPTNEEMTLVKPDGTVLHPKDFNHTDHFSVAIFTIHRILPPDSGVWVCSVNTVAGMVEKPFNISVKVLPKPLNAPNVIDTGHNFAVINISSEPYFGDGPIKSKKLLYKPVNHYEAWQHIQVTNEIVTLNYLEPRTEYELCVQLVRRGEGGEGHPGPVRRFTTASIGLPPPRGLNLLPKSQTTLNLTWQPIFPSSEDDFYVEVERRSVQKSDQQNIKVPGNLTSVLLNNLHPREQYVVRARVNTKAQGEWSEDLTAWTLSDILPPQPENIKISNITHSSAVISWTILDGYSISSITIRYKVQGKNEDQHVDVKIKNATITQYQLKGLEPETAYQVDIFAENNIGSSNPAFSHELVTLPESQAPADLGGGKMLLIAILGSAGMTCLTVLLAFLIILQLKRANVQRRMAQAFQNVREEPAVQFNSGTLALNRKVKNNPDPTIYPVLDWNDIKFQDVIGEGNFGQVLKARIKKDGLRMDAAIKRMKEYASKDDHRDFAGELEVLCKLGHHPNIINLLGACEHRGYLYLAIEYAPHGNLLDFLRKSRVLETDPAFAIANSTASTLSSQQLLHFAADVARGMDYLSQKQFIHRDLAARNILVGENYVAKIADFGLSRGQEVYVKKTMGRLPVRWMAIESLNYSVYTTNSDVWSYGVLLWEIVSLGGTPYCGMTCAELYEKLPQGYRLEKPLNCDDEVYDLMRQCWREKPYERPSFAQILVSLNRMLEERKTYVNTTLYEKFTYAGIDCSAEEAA

With “angiopoietin-2 (from UniProt O15123 19-496) (ligand)”, the block of Ang1*-mediated Tie-2 receptor phosphorylation in EAhy926 cells is greater than 20.
